# Source: US20170173132A1 (IMMATICS BIOTECHNOLOGIES, published 2017)
# Square brackets hold non-standard residues; d marks the D form. Ends that are not written are not given here. pT = C[C@@H](OP(=O)(O)O)[C@H](N)C(=O)O
# Molecular target: T1, HLA-A*02:01 (peptide-receptive MHC class I molecule, heavy chain with β2m light chain) (human)
# T1 construct: The UV-sensitive placeholder peptide is cleaved on irradiation and exchanged for the tested peptide
# Test: UV-ligand exchange, anti-β2m ELISA; grade of peptide exchange yield (≥10% = +; ≥20% = ++; ≥50 = +++; ≥75% = ++++)
# Description: Candidate peptides for T cell based therapies according to the present invention were further tested for their MHC binding capacity (affinity). The individual peptide-MHC complexes were produced by UV-ligand exchange, where a UV-sensitive peptide is cleaved upon UV-irradiation, and exchanged with the peptide of interest as analyzed. Only peptide candidates that can effectively bind and stabilize the peptide-receptive MHC molecules prevent dissociation of the MHC complexes. To determine the yield of the exchange reaction, an ELISA was performed based on the detection of the light chain (β2m) of stabilized MHC complexes. The assay was performed as generally described in Rodenko et al. (Rodenko et al., 2006).
# 96 well MAXISorp plates (NUNC) were coated over night with 2 ug/ml streptavidin in PBS at room temperature, washed 4× and blocked for 1 h at 37° C. in 2% BSA containing blocking buffer. Refolded HLA-A*02:01/MLA-001 monomers served as standards, covering the range of 15-500 ng/ml. Peptide-MHC monomers of the UV-exchange reaction were diluted 100-fold in blocking buffer. Samples were incubated for 1 h at 37° C., washed four times, incubated with 2 ug/ml HRP conjugated anti-β2m for 1 h at 37° C., washed again and detected with TMB solution that is stopped with […]. Absorption was measured at 450 nm. Candidate peptides that show a high exchange yield (preferably higher than 50%, most preferred higher than 75%) are generally preferred for a generation and production of antibodies or fragments thereof, and/or T cell receptors or fragments thereof, as they show sufficient avidity to the MHC molecules and prevent dissociation of the MHC complexes.
row,peptide exchange yield,Binder
1,50 to 75%,SLADAVEKV [peptide SLADAVEKV]
2,≥ 75%,LLM[pT]VAGLKL [peptide LLMUVAGLKL]
3,50 to 75%,YIDGLESRV [peptide YIDGLESRV]
4,50 to 75%,SLAEPRVSV [peptide SLAEPRVSV]
5,50 to 75%,ALAGSSPQV [peptide ALAGSSPQV]
6,50 to 75%,FSFPVSVGV [peptide FSFPVSVGV]
7,≥ 75%,GLLGFQAEA [peptide GLLGFQAEA]
8,≥ 75%,SMMGLLTNL [peptide SMMGLLTNL]
9,50 to 75%,GLHSLPPEV [peptide GLHSLPPEV]
10,50 to 75%,GLVATLQSL [peptide GLVATLQSL]
11,50 to 75%,ALEA[pT]QLYL [peptide ALEAUQLYL]
12,20 to 50%,KLYEGIPVL [peptide KLYEGIPVL]
13,50 to 75%,ALTALQNYL [peptide ALTALQNYL]
14,50 to 75%,SLAWDVPAA [peptide SLAWDVPAA]
15,20 to 50%,SLVEGEAVHLA [peptide SLVEGEAVHLA]
16,≥ 75%,TLLGLAVNV [peptide TLLGLAVNV]
17,50 to 75%,SLNDQGYLL [peptide SLNDQGYLL]
18,50 to 75%,SLLTEPALV [peptide SLLTEPALV]
19,50 to 75%,KMPEHISTV [peptide KMPEHISTV]
20,≥ 75%,FIIPTVATA [peptide FIIPTVATA]

row,peptide exchange yield,Binder
1,20 to 50%,ILFDVVVFL [peptide ILFDVVVFL]
2,20 to 50%,GLLPTSVSPRV [peptide GLLPTSVSPRV]
3,20 to 50%,TIASSIEKA [peptide TIASSIEKA]
4,≥ 75%,KLLDMELEM [peptide KLLDMELEM]
5,50 to 75%,FMSKLVPAI [peptide FMSKLVPAI]
6,≥ 75%,SLLSEIQAL [peptide SLLSEIQAL]
7,20 to 50%,FLSSEAANV [peptide FLSSEAANV]
8,≥ 75%,SLFSVPFFL [peptide SLFSVPFFL]
9,20 to 50%,ILTELPPGV [peptide ILTELPPGV]
10,20 to 50%,ALNPVIYTV [peptide ALNPVIYTV]
11,20 to 50%,KAFPFYNTV [peptide KAFPFYNTV]
12,20 to 50%,ALEEQLHQV [peptide ALEEQLHQV]
13,≥ 75%,GLVQSLTSI [peptide GLVQSLTSI]
14,50 to 75%,FLDEEVKLI [peptide FLDEEVKLI]
15,20 to 50%,GLSYIYNTV [peptide GLSYIYNTV]
16,50 to 75%,SLFPSLVVV [peptide SLFPSLVVV]
17,50 to 75%,KQLELELEV [peptide KQLELELEV]
18,≥ 75%,FLVEHVLTL [peptide FLVEHVLTL]
19,50 to 75%,YILLQSPQL [peptide YILLQSPQL]
